Measured values from patent US20230235013A1 (MABSOLVE, published 2023).

Experiments:
[1] = molecular target: T1, human FcRn (R&D Systems Cat. No. 8639-Fc) (human, UniProt P55899 24-297; P61769 21-119); experiment: SPR, FcRn captured; Mean
[2] = molecular target: T2, Human C1q (Sigma Cat. No. 20476), HRP-labelled (human, UniProt P02745 23-245; P02746 28-253; P02747 29-245); experiment: ELISA, antibody coated, HRP-C1q; Expt 3, buffer alone 0.102
T2 construct: Coupled to horse-radish peroxidase with Lightning-Link kit; also called HRP-labelled C1q

[3] = molecular target: T1, human FcRn (R&D Systems Cat. No. …); experiment: SPR, FcRn captured; Expt 1
[4] = molecular target: T2, Human C1q (Sigma Cat. No. 20476), …; experiment: ELISA, antibody coated, HRP-C1q; Expt 2, buffer alone 0.091
[5] = molecular target: T1, human FcRn (R&D Systems Cat. No. …); experiment: SPR, FcRn captured; Expt 2
[6] = molecular target: T1, human FcRn (R&D Systems Cat. No. …); experiment: SPR, FcRn captured; Expt 3
[7] = molecular target: T2, Human C1q (Sigma Cat. No. 20476), …; experiment: ELISA, antibody coated, HRP-C1q; Expt 1, buffer alone 0.061
[8] = molecular target: T3, C-terminus biotinylated human FcRn attached to Streptavidin-SmBiT (FcRn-SAv-SmBiT) (human, UniProt P55899 24-297; P61769 21-119, limits assumed, C-terminus biotinylated (AviTag), attached to Streptavidin-SmBiT); experiment: NanoBiT FcRn competition immunoassay, competitor Tracer-LgBiT human IgG, pH 6.0
T3 construct: Kit reagent; also called hFcRn-AviTag

B1: anti-CD20 (rituximab) human IgG1 L234S/L235G/G236R (antibody)
heavy: QVQLQQPGAELVKPGASVKMSCKASGYTFTSYNMHWVKQTPGRGLEWIGAIYPGNGDTSYNQKFKGKATLTADKSSSTAYMQLSSLTSEDSAVYYCARSTYYGGDWYFNVWGAGTTVTVSSASTKGPSVFPLAPSSKSTSGGTAALGCLVKDYFPEPVTVSWNSGALTSGVHTFPAVLQSSGLYSLSSVVTVPSSSLGTQTYICNVNHKPSNTKVDKKVEPKSCDKTHTCPPCPAPESGRGPSVFLFPPKPKDTLMISRTPEVTCVVVDVSHEDPEVKFNWYVDGVEVHNAKTKPREEQYNSTYRVVSVLTVLHQDWLNGKEYKCKVSNKALPAPIEKTISKAKGQPREPQVYTLPPSRDELTKNQVSLTCLVKGFYPSDIAVEWESNGQPENNYKTTPPVLDSDGSFFLYSKLTVDKSRWQQGNVFSCSVMHEALHNHYTQKSLSLSPGK
light: QIVLSQSPAILSASPGEKVTMTCRASSSVSYIHWFQQKPGSSPKPWIYATSNLASGVPVRFSGSGSGTSYSLTISRVEAEDAATYYCQQWTSNPPTFGGGTKLEIKRTVAAPSVFIFPPSDEQLKSGTASVVCLLNNFYPREAKVQWKVDNALQSGNSQESVTEQDSKDSTYSLSSTLTLSKADYEKHKVYACEVTHQGLSSPVTKSFNRGEC
notes: EU numbering; also called 2-47; 1-140; copies: 2 + 2
Corrected and normalised response (% of wild-type reference) [1]: 100 % of wild-type reference
Mean Absorbance [2]: 0.087 absorbance (450 nm)
Corrected and normalised response (% of wild-type reference) [3]: 100 % of wild-type reference
Mean Absorbance [4]: 0.074 absorbance (450 nm)
Corrected and normalised response (% of wild-type reference) [5]: 101 % of wild-type reference
Corrected and normalised response (% of wild-type reference) [6]: 100 % of wild-type reference

B2: anti-CD20 (rituximab) human IgG1 L234T/L235S/G236R (antibody)
heavy: QVQLQQPGAELVKPGASVKMSCKASGYTFTSYNMHWVKQTPGRGLEWIGAIYPGNGDTSYNQKFKGKATLTADKSSSTAYMQLSSLTSEDSAVYYCARSTYYGGDWYFNVWGAGTTVTVSSASTKGPSVFPLAPSSKSTSGGTAALGCLVKDYFPEPVTVSWNSGALTSGVHTFPAVLQSSGLYSLSSVVTVPSSSLGTQTYICNVNHKPSNTKVDKKVEPKSCDKTHTCPPCPAPETSRGPSVFLFPPKPKDTLMISRTPEVTCVVVDVSHEDPEVKFNWYVDGVEVHNAKTKPREEQYNSTYRVVSVLTVLHQDWLNGKEYKCKVSNKALPAPIEKTISKAKGQPREPQVYTLPPSRDELTKNQVSLTCLVKGFYPSDIAVEWESNGQPENNYKTTPPVLDSDGSFFLYSKLTVDKSRWQQGNVFSCSVMHEALHNHYTQKSLSLSPGK
light: QIVLSQSPAILSASPGEKVTMTCRASSSVSYIHWFQQKPGSSPKPWIYATSNLASGVPVRFSGSGSGTSYSLTISRVEAEDAATYYCQQWTSNPPTFGGGTKLEIKRTVAAPSVFIFPPSDEQLKSGTASVVCLLNNFYPREAKVQWKVDNALQSGNSQESVTEQDSKDSTYSLSSTLTLSKADYEKHKVYACEVTHQGLSSPVTKSFNRGEC
notes: EU numbering; also called 2-62; copies: 2 + 2
Mean Absorbance [2]: 0.119 absorbance (450 nm)
Mean Absorbance [4]: 0.067 absorbance (450 nm)
Mean Absorbance [7]: 0.037 absorbance (450 nm)

B3: anti-CD20 (rituximab) human IgG1 L234T/L235Q/G236R (antibody)
heavy: QVQLQQPGAELVKPGASVKMSCKASGYTFTSYNMHWVKQTPGRGLEWIGAIYPGNGDTSYNQKFKGKATLTADKSSSTAYMQLSSLTSEDSAVYYCARSTYYGGDWYFNVWGAGTTVTVSSASTKGPSVFPLAPSSKSTSGGTAALGCLVKDYFPEPVTVSWNSGALTSGVHTFPAVLQSSGLYSLSSVVTVPSSSLGTQTYICNVNHKPSNTKVDKKVEPKSCDKTHTCPPCPAPETQRGPSVFLFPPKPKDTLMISRTPEVTCVVVDVSHEDPEVKFNWYVDGVEVHNAKTKPREEQYNSTYRVVSVLTVLHQDWLNGKEYKCKVSNKALPAPIEKTISKAKGQPREPQVYTLPPSRDELTKNQVSLTCLVKGFYPSDIAVEWESNGQPENNYKTTPPVLDSDGSFFLYSKLTVDKSRWQQGNVFSCSVMHEALHNHYTQKSLSLSPGK
light: QIVLSQSPAILSASPGEKVTMTCRASSSVSYIHWFQQKPGSSPKPWIYATSNLASGVPVRFSGSGSGTSYSLTISRVEAEDAATYYCQQWTSNPPTFGGGTKLEIKRTVAAPSVFIFPPSDEQLKSGTASVVCLLNNFYPREAKVQWKVDNALQSGNSQESVTEQDSKDSTYSLSSTLTLSKADYEKHKVYACEVTHQGLSSPVTKSFNRGEC
notes: EU numbering; also called 2-60; copies: 2 + 2
Corrected and normalised response (% of wild-type reference) [1]: 95 % of wild-type reference
Corrected and normalised response (% of wild-type reference) [3]: 94.6 % of wild-type reference
Mean Absorbance [4]: 0.077 absorbance (450 nm)
Corrected and normalised response (% of wild-type reference) [5]: 96.1 % of wild-type reference
Mean binding activity (% of wild-type reference) [8]: 84.7 % of wild-type reference
Corrected and normalised response (% of wild-type reference) [6]: 94.3 % of wild-type reference
Mean Absorbance [7]: 0.049 absorbance (450 nm)

B4: anti-CD20 (rituximab) human IgG1 L234S/L235V/G236R (antibody)
heavy: QVQLQQPGAELVKPGASVKMSCKASGYTFTSYNMHWVKQTPGRGLEWIGAIYPGNGDTSYNQKFKGKATLTADKSSSTAYMQLSSLTSEDSAVYYCARSTYYGGDWYFNVWGAGTTVTVSSASTKGPSVFPLAPSSKSTSGGTAALGCLVKDYFPEPVTVSWNSGALTSGVHTFPAVLQSSGLYSLSSVVTVPSSSLGTQTYICNVNHKPSNTKVDKKVEPKSCDKTHTCPPCPAPESVRGPSVFLFPPKPKDTLMISRTPEVTCVVVDVSHEDPEVKFNWYVDGVEVHNAKTKPREEQYNSTYRVVSVLTVLHQDWLNGKEYKCKVSNKALPAPIEKTISKAKGQPREPQVYTLPPSRDELTKNQVSLTCLVKGFYPSDIAVEWESNGQPENNYKTTPPVLDSDGSFFLYSKLTVDKSRWQQGNVFSCSVMHEALHNHYTQKSLSLSPGK
light: QIVLSQSPAILSASPGEKVTMTCRASSSVSYIHWFQQKPGSSPKPWIYATSNLASGVPVRFSGSGSGTSYSLTISRVEAEDAATYYCQQWTSNPPTFGGGTKLEIKRTVAAPSVFIFPPSDEQLKSGTASVVCLLNNFYPREAKVQWKVDNALQSGNSQESVTEQDSKDSTYSLSSTLTLSKADYEKHKVYACEVTHQGLSSPVTKSFNRGEC
notes: EU numbering; also called 2-53; copies: 2 + 2
Mean Absorbance [4]: 0.09 absorbance (450 nm)
Mean binding activity (% of wild-type reference) [8]: 94.1 % of wild-type reference
Mean Absorbance [7]: 0.072 absorbance (450 nm)
